Article PMC6921269

Columns and labels:
[1] = test system: CCCCCCCCCCCCCCCC(=O)CC(=O)SCCNC(C)=O; assay: purified protein; settings: co-substrate C5 diketide-NAC, 37 °C, 20 min
[2] = test system: CCCCCCCCCCCCCCCCCC(=O)CC(=O)SCCNC(C)=O; assay: purified protein; settings: co-substrate C5 diketide-NAC, 37 °C, 20 min

CsyB (Aspergillus oryzae RIB40; I375F) was tested, and the Km [1] was 5.4 ± 1.8 mM, the kcat [1] was 0.713 ± 0.075 s⁻¹ and the kcat/Km [1] was 132 M⁻¹ s⁻¹. It also gave a Km [2] of 6.5 ± 2.1 mM, a kcat [2] of 0.882 ± 0.14 s⁻¹ and a kcat/Km [2] of 136 M⁻¹ s⁻¹.
